Measurements reported in the supplement of paper PMC10201428.
± gives the standard deviation of the averaged measurements.

Columns and labels:
[1] = tested on: VchCAST RNA-guided transposition machinery (E. coli BL21(DE3) host, lacZ target); test: relative integration efficiency (T-RL orientation) vs wild-type transposon end (log2 (normalized fold change)); transposon end mutated: left end; higher = more efficient transposition
Summary of the method: (§1)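 Barcoded pools of 1549 left-end or 1849 right-end transposon variants were cloned into a pUC57 mini-transposon donor. Each pool was co-transformed with a T7-driven effector plasmid (CRISPR array, tniQ-cas8-cas7-cas6, tnsA-tnsB-tnsC) into E. coli BL21(DE3) and plated with 0.1 mM IPTG at 37°C for 18 h. Input plasmids and genomic integration junctions were PCR-amplified and Illumina-sequenced, with two biological output replicates and four wild-type barcodes as reference. Relative integration efficiency is output/input barcode abundance fold change, normalised to wild-type barcodes and log-transformed.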

[2] = tested on: VchCAST RNA-guided transposition machinery (E. coli BL21(DE3) host, lacZ target); test: relative integration efficiency (T-LR orientation) vs wild-type transposon end (log2 (normalized fold change)); transposon end mutated: left end; higher = more efficient transposition
Summary of the method: as §1

Sequence | relative integration efficiency (log2) [1] | relative integration efficiency (log2) [2]
AATGTTGTTGATGCAACCATAAAGTGATATTTAATAATTATTTATAATCAGCAACTTAACCACAAAACAACCATATAGGTCGCGAGACACCCCACCAACGCCTGGTCGCGGGGGTGTCCGATCTGATTTCAGCAAAACTACTGCAGTAAGAA | -5.2 ± 1.6 | -3.44 ± 0.57
AATGTTGTTGATGCAACCATAAAGTGATATTTAATAATTATTTATAATCAGCAACTTAACCACAAAACAACCATATATTGAGCGAGACACCCCACCAACGCCTGGTCGCGGGGGTGTCCGATCTGATTTCAGCAAAACTACTGCAGTAAGAA | -4.19 ± 1.3 | -2.37 ± 1.7
AATGTTGTTGATGCAACCATAAAGTGATATTTAATAATTATTTATAATCAGCAACTTAACCACAAAACAACCATATATTGATACAAAACAACCATAAGTTGATATTTTTGTGAATCGAGTATTTCAGCAAAACTACTGCAGTAAGAAAGTTA | -4.34 ± 0.99 | -2.08 ± 1.7
AATGTTGTTGATGCAACCATAAAGTGATATTTAATAATTATTTATAATCAGCAACTTAACCACAAAACAACCATATATTGATAGAGACACCCCACCAACGCCTGGTCGCGGGGGTGTCCGATCTGATTTCAGCAAAACTACTGCAGTAAGAA | -3.06 ± 1.2 | -1.28 ± 2
AATGTTGTTGATGCAACCATAAAGTGATATTTAATAATTATTTATAATCAGCAACTTAACCACAAAACAACCATATATTGATATACAAAACAACCATAAGTTGATATTTTTGTGAATCGAGTATTTCAGCAAAACTACTGCAGTAAGAAAGT | -4.08 ± 1.3 | -0.952 ± 0.93
AATGTTGTTGATGCAACCATAAAGTGATATTTAATAATTATTTATAATCAGCAACTTAACCACAAAACAACCATATATTGATATAGACACCCCACCAACGCCTGGTCGCGGGGGTGTCCGATCTGATTTCAGCAAAACTACTGCAGTAAGAA | -2.48 ± 1.1 | -1.07 ± 1.7
AATGTTGTTGATGCAACCATAAAGTGATATTTAATAATTATTTATAATCAGCAACTTAACCACAAAACAACCATATATTGATATCACAAAACAACCATAAGTTGATATTTTTGTGAATCGAGTATTTCAGCAAAACTACTGCAGTAAGAAAG | -2.64 ± 0.93 | -0.718 ± 0.95
AATGTTGTTGATGCAACCATAAAGTGATATTTAATAATTATTTATAATCAGCAACTTAACCACAAAACAACCATATATTGATATCGACACCCCACCAACGCCTGGTCGCGGGGGTGTCCGATCTGATTTCAGCAAAACTACTGCAGTAAGAA | -2.44 ± 0.91 | -1.19 ± 2
AATGTTGTTGATGCAACCATAAAGTGATATTTAATAATTATTTATAATCAGCAACTTAACCACAAAACAACCATATATTGATATCTACAAAACAACCATAAGTTGATATTTTTGTGAATCGAGTATTTCAGCAAAACTACTGCAGTAAGAAA | -1.23 ± 0.67 | -0.176 ± 0.54
AATGTTGTTGATGCAACCATAAAGTGATATTTAATAATTATTTATAATCAGCAACTTAACCACAAAACAACCATATATTGATATCTACACCCCACCAACGCCTGGTCGCGGGGGTGTCCGATCTGATTTCAGCAAAACTACTGCAGTAAGAA | -2.46 ± 1 | -1.16 ± 1.5
AATGTTGTTGATGCAACCATAAAGTGATATTTAATAATTATTTATAATCAGCAACTTAACCACAAAACAACCATATATTGATATCTCAACCCCACCAACGCCTGGTCGCGGGGGTGTCCGATCTGATTTCAGCAAAACTACTGCAGTAAGAA | -2.58 ± 0.89 | -0.776 ± 1.1
AATGTTGTTGATGCAACCATAAAGTGATATTTAATAATTATTTATAATCAGCAACTTAACCACAAAACAACCATATATTGATATCTCACAAAAACCAACGCCCTGTCGCGGGCTGTGAATCGAGTATTTCAGCAAAACTACTGCAGTAAGAA | -2.5 ± 0.88 | -1.71 ± 0.47
AATGTTGTTGATGCAACCATAAAGTGATATTTAATAATTATTTATAATCAGCAACTTAACCACAAAACAACCATATATTGATATCTCACAAAAACCAACGCCTGGTCGCGGGGGTGTCCGATCTGATTTCAGCAAAACTACTGCAGTAAGAA | -2.38 ± 1.1 | -0.363 ± 1.2
AATGTTGTTGATGCAACCATAAAGTGATATTTAATAATTATTTATAATCAGCAACTTAACCACAAAACAACCATATATTGATATCTCACAAAACAAAACGCCTGGTCGCGGGGGTGTCCGATCTGATTTCAGCAAAACTACTGCAGTAAGAA | -2.27 ± 1 | -0.638 ± 1.1
AATGTTGTTGATGCAACCATAAAGTGATATTTAATAATTATTTATAATCAGCAACTTAACCACAAAACAACCATATATTGATATCTCACAAAACAACACGCCTGGTCGCGGGGGTGTCCGATCTGATTTCAGCAAAACTACTGCAGTAAGAA | -2.49 ± 0.9 | -0.741 ± 1.6
AATGTTGTTGATGCAACCATAAAGTGATATTTAATAATTATTTATAATCAGCAACTTAACCACAAAACAACCATATATTGATATCTCACAAAACAACCAGCCTGGTCGCGGGGGTGTCCGATCTGATTTCAGCAAAACTACTGCAGTAAGAA | -2.22 ± 0.9 | -0.68 ± 0.94

Sequence | relative integration efficiency (log2) [1] | relative integration efficiency (log2) [2]
AATGTTGTTGATGCAACCATAAAGTGATATTTAATAATTATTTATAATCAGCAACTTAACCACAAAACAACCATATATTGATATCTCACAAAACAACCATAAGGGTCGCGGGGGTGTCCGATCTGATTTCAGCAAAACTACTGCAGTAAGAA | -1.87 ± 0.93 | -1.56 ± 1
AATGTTGTTGATGCAACCATAAAGTGATATTTAATAATTATTTATAATCAGCAACTTAACCACAAAACAACCATATATTGATATCTCACAAAACAACCATAAGTGTCGCGGGGGTGTCCGATCTGATTTCAGCAAAACTACTGCAGTAAGAA | -2.05 ± 0.76 | -1.82 ± 0.77
AATGTTGTTGATGCAACCATAAAGTGATATTTAATAATTATTTATAATCAGCAACTTAACCACAAAACAACCATATATTGATATCTCACAAAACAACCATAAGTTGAGCGGGGGTGTCCGATCTGATTTCAGCAAAACTACTGCAGTAAGAA | -1.32 ± 0.58 | -1.81 ± 0.51
AATGTTGTTGATGCAACCATAAAGTGATATTTAATAATTATTTATAATCAGCAACTTAACCACAAAACAACCATATATTGATATCTCACAAAACAACCATAAGTTGATAGGGGGTGTCCGATCTGATTTCAGCAAAACTACTGCAGTAAGAA | -0.795 ± 0.62 | -0.256 ± 0.057
AATGTTGTTGATGCAACCATAAAGTGATATTTAATAATTATTTATAATCAGCAACTTAACCACAAAACAACCATATATTGATATCTCACAAAACAACCATAAGTTGATATGGGGTGTCCGATCTGATTTCAGCAAAACTACTGCAGTAAGAA | -0.33 ± 0.14 | -0.611 ± 0.81
AATGTTGTTGATGCAACCATAAAGTGATATTTAATAATTATTTATAATCAGCAACTTAACCACAAAACAACCATATATTGATATCTCACAAAACAACCATAAGTTGATATGTGAATCGAGTATTTCAGCAAAACTACTGCAGTAAGAAAGTT | -0.276 ± 0.26 | -0.00636 ± 0.11
AATGTTGTTGATGCAACCATAAAGTGATATTTAATAATTATTTATAATCAGCAACTTAACCACAAAACAACCATATATTGATATCTCACAAAACAACCATAAGTTGATATTGGGTGTCCGATCTGATTTCAGCAAAACTACTGCAGTAAGAA | -0.13 ± 0.053 | -0.651 ± 0.46
AATGTTGTTGATGCAACCATAAAGTGATATTTAATAATTATTTATAATCAGCAACTTAACCACAAAACAACCATATATTGATATCTCACAAAACAACCATAAGTTGATATTGTGAATCGAGTATTTCAGCAAAACTACTGCAGTAAGAAAGT | -0.306 ± 0.15 | -0.0935 ± 0.19
AATGTTGTTGATGCAACCATAAAGTGATATTTAATAATTATTTATAATCAGCAACTTAACCACAAAACAACCATATATTGATATCTCACAAAACAACCATAAGTTGATATTTGTGAATCGAGTATTTCAGCAAAACTACTGCAGTAAGAAAG | -0.116 ± 0.072 | 0.0663 ± 0.15
AATGTTGTTGATGCAACCATAAAGTGATATTTAATAATTATTTATAATCAGCAACTTAACCACAAAACAACCATATATTGATATCTCACAAAACAACCATAAGTTGATATTTTGTGAATCGAGTATTTCAGCAAAACTACTGCAGTAAGAAA | 0.0855 ± 0.0046 | 0.169 ± 0.12
AATGTTGTTGATGCAACCATAAAGTGATATTTAATAATTATTTATAATCAGCAACTTAACCACAAAACAACCATATATTGATATCTCACAAAACAACCATAAGTTGATCGGGGGTGTCCGATCTGATTTCAGCAAAACTACTGCAGTAAGAA | -1.03 ± 0.49 | -1.32 ± 0.59
AATGTTGTTGATGCAACCATAAAGTGATATTTAATAATTATTTATAATCAGCAACTTAACCACAAAACAACCATATATTGATATCTCACAAAACAACCATAAGTTGATTGTGAATCGAGTATTTCAGCAAAACTACTGCAGTAAGAAAGTTA | -0.574 ± 0.38 | -0.858 ± 0.1
AATGTTGTTGATGCAACCATAAAGTGATATTTAATAATTATTTATAATCAGCAACTTAACCACAAAACAACCATATATTGATATCTCACAAAACAACCATAAGTTGCGCGGGGGTGTCCGATCTGATTTCAGCAAAACTACTGCAGTAAGAA | -1.74 ± 0.81 | -3.15 ± 1.6
AATGTTGTTGATGCAACCATAAAGTGATATTTAATAATTATTTATAATCAGCAACTTAACCACAAAACAACCATATATTGATATCTCACAAAACAACCATAAGTTTCGCGGGGGTGTCCGATCTGATTTCAGCAAAACTACTGCAGTAAGAA | -2.22 ± 0.95 | -2.11 ± 1.5
AATGTTGTTGATGCAACCATAAAGTGATATTTAATAATTATTTATAATCAGCAACTTAACCACAAAACAACCATATATTGATATCTCACAAAACAACCATAATGGTCGCGGGGGTGTCCGATCTGATTTCAGCAAAACTACTGCAGTAAGAA | -1.93 ± 0.81 | -1.31 ± 0.87
